Legend:
4H3631-AA = target: T1, 4H3631-AA; assay: two-hybrid library CCmax;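 further: natural log of median RNA to DNA barcode read ratio; higher means stronger binding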
T1 chain: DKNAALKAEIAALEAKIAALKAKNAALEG

4H3697-AA = target: T2, 4H3697-AA; assay: two-hybrid library CCmax; conditions: mean of both orientations;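 further: natural log of median RNA to DNA barcode read ratio; higher means stronger binding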
T2 chain: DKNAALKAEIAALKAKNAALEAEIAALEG

4H3718-AA = target: T3, 4H3718-AA; assay: two-hybrid library CCmax; conditions: mean of both orientations;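 further: natural log of median RNA to DNA barcode read ratio; higher means stronger binding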
T3 chain: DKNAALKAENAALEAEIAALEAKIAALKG

4H384-AA = target: T4, 4H384-AA; assay: two-hybrid library CCmax; conditions: mean of both orientations;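 further: natural log of median RNA to DNA barcode read ratio; higher means stronger binding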
T4 chain: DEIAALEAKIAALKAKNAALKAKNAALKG

4H3865-AA = target: T5, 4H3865-AA; assay: two-hybrid library CCmax; conditions: mean of both orientations
T5 chain: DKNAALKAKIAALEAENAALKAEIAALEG

4H697-AA = target: T6, 4H697-AA; assay: two-hybrid library CCmax; conditions: mean of both orientations
T6 chain: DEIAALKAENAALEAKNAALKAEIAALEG

4H982-AA = target: T7, 4H982-AA; assay: two-hybrid library CCmax; conditions: mean of both orientations
T7 chain: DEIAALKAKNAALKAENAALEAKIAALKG

4H908-bH = target: T8, 4H908-bH; assay: two-hybrid library CCNG1
T8 chain: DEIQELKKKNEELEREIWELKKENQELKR

4H918-bH = target: T9, 4H918-bH; assay: two-hybrid library CCNG1
T9 chain: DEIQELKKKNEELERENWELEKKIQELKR

4H953-bH = target: T10, 4H953-bH; assay: two-hybrid library CCNG1
T10 chain: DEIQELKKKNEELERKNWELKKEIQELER

4H967-bH = target: T11, 4H967-bH; assay: two-hybrid library CCNG1
T11 chain: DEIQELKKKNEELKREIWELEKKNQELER

4H850-bH = target: T12, 4H850-bH; assay: two-hybrid library CCNG1
T12 chain: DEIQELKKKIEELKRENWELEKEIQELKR

4H906-bH = target: T13, 4H906-bH; assay: two-hybrid library CCNG1
T13 chain: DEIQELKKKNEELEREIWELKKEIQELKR

4H883-bH = target: T14, 4H883-bH; assay: two-hybrid library CCNG1
T14 chain: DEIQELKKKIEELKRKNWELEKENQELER

4H3120-AA = target: T15, 4H3120-AA; assay: two-hybrid library CCmax
T15 chain: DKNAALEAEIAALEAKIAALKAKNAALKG

4H3130-AA = target: T16, 4H3130-AA; assay: two-hybrid library CCmax; conditions: mean of both orientations
T16 chain: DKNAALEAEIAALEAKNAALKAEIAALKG

4H3165-AA = target: T17, 4H3165-AA; assay: two-hybrid library CCmax; conditions: mean of both orientations
T17 chain: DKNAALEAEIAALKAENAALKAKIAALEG

4H3381-AA = target: T18, 4H3381-AA; assay: two-hybrid library CCmax; conditions: mean of both orientations
T18 chain: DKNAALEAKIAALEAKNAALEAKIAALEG

4H3395-AA = target: T19, 4H3395-AA; assay: two-hybrid library CCmax; conditions: mean of both orientations
T19 chain: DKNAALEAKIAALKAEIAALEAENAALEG

4H3410-AA = target: T20, 4H3410-AA; assay: two-hybrid library CCmax; conditions: mean of both orientations
T20 chain: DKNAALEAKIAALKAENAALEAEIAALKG

4H3590-AA = target: T21, 4H3590-AA; assay: two-hybrid library CCmax; conditions: mean of both orientations
T21 chain: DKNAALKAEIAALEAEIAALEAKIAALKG

4H3753-AA = target: T22, 4H3753-AA; assay: two-hybrid library CCmax; conditions: mean of both orientations
T22 chain: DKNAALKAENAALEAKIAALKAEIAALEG

4H458-AA = target: T23, 4H458-AA; assay: two-hybrid library CCmax; conditions: mean of both orientations
T23 chain: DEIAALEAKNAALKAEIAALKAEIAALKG

4H485-AA = target: T24, 4H485-AA; assay: two-hybrid library CCmax; conditions: mean of both orientations
T24 chain: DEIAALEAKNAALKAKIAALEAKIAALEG

4H536-AA = target: T25, 4H536-AA; assay: two-hybrid library CCmax; conditions: mean of both orientations
T25 chain: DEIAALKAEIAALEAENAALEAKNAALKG

4H570-AA = target: T26, 4H570-AA; assay: two-hybrid library CCmax; conditions: mean of both orientations
T26 chain: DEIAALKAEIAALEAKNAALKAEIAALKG

4H629-AA = target: T27, 4H629-AA; assay: two-hybrid library CCmax; conditions: mean of both orientations
T27 chain: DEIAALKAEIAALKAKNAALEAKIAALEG

4H710-AA = target: T28, 4H710-AA; assay: two-hybrid library CCmax; conditions: mean of both orientations
T28 chain: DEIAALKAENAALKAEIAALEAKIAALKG

4H745-AA = target: T29, 4H745-AA; assay: two-hybrid library CCmax; conditions: mean of both orientations
T29 chain: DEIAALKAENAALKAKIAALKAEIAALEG

4H797-AA = target: T30, 4H797-AA; assay: two-hybrid library CCmax; conditions: mean of both orientations
T30 chain: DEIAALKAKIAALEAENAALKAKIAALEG

4H850-AA = target: T31, 4H850-AA; assay: two-hybrid library CCmax; conditions: mean of both orientations
T31 chain: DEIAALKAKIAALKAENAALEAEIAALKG

4H891-AA = target: T32, 4H891-AA; assay: two-hybrid library CCmax; conditions: mean of both orientations
T32 chain: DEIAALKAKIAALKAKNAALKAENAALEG

4H909-AA = target: T33, 4H909-AA; assay: two-hybrid library CCmax; conditions: mean of both orientations
T33 chain: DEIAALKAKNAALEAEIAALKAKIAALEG

4H930-AA = target: T34, 4H930-AA; assay: two-hybrid library CCmax; conditions: mean of both orientations
T34 chain: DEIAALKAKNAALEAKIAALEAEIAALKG

4H94-AA = target: T35, 4H94-AA; assay: two-hybrid library CCmax; conditions: mean of both orientations
T35 chain: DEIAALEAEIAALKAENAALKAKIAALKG

4H391-AA = target: T36, 4H391-AA; assay: two-hybrid library CCmax
T36 chain: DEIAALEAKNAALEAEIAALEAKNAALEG

4H3920-AA = target: T37, 4H3920-AA; assay: two-hybrid library CCmax; conditions: mean of both orientations
T37 chain: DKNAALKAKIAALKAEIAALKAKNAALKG

4H3939-AA = target: T38, 4H3939-AA; assay: two-hybrid library CCmax; conditions: mean of both orientations
T38 chain: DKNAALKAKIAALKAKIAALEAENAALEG

4H428-AA = target: T39, 4H428-AA; assay: two-hybrid library CCmax; conditions: mean of both orientations
T39 chain: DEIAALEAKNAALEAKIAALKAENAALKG

4H478-AA = target: T40, 4H478-AA; assay: two-hybrid library CCmax; conditions: mean of both orientations
T40 chain: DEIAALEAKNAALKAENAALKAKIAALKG

4H497-AA = target: T41, 4H497-AA; assay: two-hybrid library CCmax; conditions: mean of both orientations
T41 chain: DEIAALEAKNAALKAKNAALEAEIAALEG

4H656-AA = target: T42, 4H656-AA; assay: two-hybrid library CCmax; conditions: mean of both orientations
T42 chain: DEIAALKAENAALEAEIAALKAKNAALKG

4H675-AA = target: T43, 4H675-AA; assay: two-hybrid library CCmax; conditions: mean of both orientations
T43 chain: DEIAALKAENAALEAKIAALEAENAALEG

4H971-AA = target: T44, 4H971-AA; assay: two-hybrid library CCmax; conditions: mean of both orientations
T44 chain: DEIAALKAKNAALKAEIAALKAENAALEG

B1: 4H3631-AA (peptide)
chain: DKNAALKAEIAALEAKIAALKAKNAALEG
What does the source list for B1?
interaction score (4H3631-AA): 0.402; interaction score (4H3697-AA): -1.62; interaction score (4H3718-AA): 0.0628; interaction score (4H384-AA): -1.07; interaction score (4H3865-AA): -1.53; interaction score (4H697-AA): -1.8; interaction score (4H982-AA): -1.91

B2: 4H908-bH (peptide)
chain: DEIQELKKKNEELEREIWELKKENQELKR
How did the interaction score (4H908-bH) turn out when B2 was run?
Its interaction score is 0.057.

What about the interaction score (4H918-bH) of the same binder?
Its interaction score is -2.03.

What about the interaction score (4H953-bH) of the same binder?
The interaction score was -0.842.

What about the interaction score (4H967-bH) of the same binder?
Its interaction score is -0.426.

B3: 4H850-bH (peptide)
chain: DEIQELKKKIEELKRENWELEKEIQELKR
B3 was tested. Which interaction score (4H850-bH) did it give?
The interaction score was 0.554.

And the interaction score (4H906-bH)?
The interaction score was -0.227.

B4: 4H883-bH (peptide)
chain: DEIQELKKKIEELKRKNWELEKENQELER
What does the source list for B4?
interaction score (4H883-bH): 0.33; interaction score (4H908-bH): -0.306; interaction score (4H918-bH): -0.51; interaction score (4H953-bH): -0.831; interaction score (4H967-bH): -0.709

B5: 4H3120-AA (peptide)
chain: DKNAALEAEIAALEAKIAALKAKNAALKG
Which results are given for B5?
interaction score (4H3120-AA): 1.15; interaction score (4H3130-AA): -0.632; interaction score (4H3165-AA): -1.33; interaction score (4H3381-AA): -1.79; interaction score (4H3395-AA): 2.17; interaction score (4H3410-AA): -1.25; interaction score (4H3590-AA): 1.08; interaction score (4H3697-AA): -1.39; interaction score (4H3753-AA): 0.619; interaction score (4H3865-AA): -1.52; interaction score (4H458-AA): -1.3; interaction score (4H485-AA): -0.737; interaction score (4H536-AA): 1.51; interaction score (4H570-AA): -0.988; interaction score (4H629-AA): -1.66; interaction score (4H710-AA): -1.56; interaction score (4H745-AA): -1.09; interaction score (4H797-AA): -1.9; interaction score (4H850-AA): -0.918; interaction score (4H891-AA): -0.991; interaction score (4H909-AA): -1.58; interaction score (4H930-AA): -1.5; interaction score (4H94-AA): -1.07

B6: 4H391-AA (peptide)
chain: DEIAALEAKNAALEAEIAALEAKNAALEG
Which results are given for B6?
interaction score (4H391-AA): -1.79; interaction score (4H3920-AA): -1.23; interaction score (4H3939-AA): -1.7; interaction score (4H428-AA): -0.212; interaction score (4H478-AA): -1.59; interaction score (4H497-AA): -2; interaction score (4H656-AA): -0.583; interaction score (4H675-AA): -1.11; interaction score (4H971-AA): -1.02
